From the supplement of paper PMC7125110 come the findings set out here.

As a reminder, the kcat is the maximal rate divided by the concentration of active sites. For orientation: KM means the concentration of substrate that gives half-maximal velocity.

± gives the standard error. For some assays here: Variants at the floor of the assay were thinned out. A value given as a limit tells only on which side of the number the result lay.

B1: glmS ribozyme (parent)
chain: AUAAAAGCGCCAGAACUACAGAAAUGUAGUUGACGAGGAGGAGGUUUAUCGAAUUUUCGGCGGAUGCCUCCAAA

Settings in all cases: with glucosamine-6-phosphate
Variants of B1 are the subject of series [1]. The series is described as follows: kcat; higher = faster cleavage; RNA array. A digest of the protocol:
(§1)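 E. coli RNA polymerase transcribed barcoded ribozyme variants in situ on sequenced MiSeq chips, which were tracked via a hybridised Cy3 probe at 37 °C. Tiles were imaged over ~14 h after glucosamine-6-phosphate (40 μM to 10 mM) in HEPES/KCl/Mg(OAc)2 buffer was flowed in. Normalised per-tile medians were fit to one- or two-exponential decays for kobs, and kcat and KM came from weighted Michaelis–Menten fits.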

The variants in series [2] derive from B1. Nature of the series: KM; higher = weaker cofactor use; RNA array. A digest of the protocol:
as §1

The variants in series [3] derive from B1. The series is described as follows: self-cleavage kobs at 2500 uM GlcN6P; higher = faster cleavage; RNA array. A digest of the protocol: as §1
Series [4] covers variants of B1. The series is described as follows: self-cleavage kobs at 10000 uM GlcN6P; higher = faster cleavage; RNA array. A digest of the protocol: as §1
In series [5] the parent is B1. The series is described as follows: self-cleavage kobs at 640 uM GlcN6P; higher = faster cleavage; RNA array. A digest of the protocol:
as §1

The variants in series [6] derive from B1. Nature of the series: self-cleavage kobs at 40 uM GlcN6P; higher = faster cleavage; RNA array. A digest of the protocol: as §1
The variants in series [7] derive from B1. The series is described as follows: self-cleavage kobs at 160 uM GlcN6P; higher = faster cleavage; RNA array. A digest of the protocol: as §1

With AUAAAAGCGCCAGAACUACAGAAAUGUAGUUGACGAGGAGGAGGUUUAUCGAAGUUUCAGCGGAUGCCUCCAAA, the catalytic constant (kcat) with glucosamine-6-phosphate [1] was found to be 9.1e-05 ± 6.5e-06 s⁻¹. Moreover, the Michaelis-Menten constant (KM) in the series with glucosamine-6-phosphate [2] was 858 ± 300 µM. For the same variant, the “self-cleavage kobs at 2500 uM GlcN6P” value in the series with glucosamine-6-phosphate [3] came to 6.93e-05 ± 2.3e-05 s⁻¹. Also, the “self-cleavage kobs at 10000 uM GlcN6P” value in the series with glucosamine-6-phosphate [4] amounted to 8.23e-05 ± 3e-05 s⁻¹.

Turning to AUAAAAGCGCCAGAACUACAGAAAUGUAGUUGACGAGGAGGAGGUUUAUCGGAUUUUCGGCGGAAGCCUCCAAA, the kcat with glucosamine-6-phosphate [1] was 0.00041 ± 0.00018 s⁻¹. Moreover, the “self-cleavage kobs at 640 uM GlcN6P” value with glucosamine-6-phosphate [5] was found to be 6.01e-05 ± 1.2e-05 s⁻¹. For the same variant, the “self-cleavage kobs at 2500 uM GlcN6P” value with glucosamine-6-phosphate [3] stood at 0.000103 ± 1.6e-05 s⁻¹. Moreover, the “self-cleavage kobs at 10000 uM GlcN6P” value in the series with glucosamine-6-phosphate [4] came out at 0.00028 ± 4.3e-05 s⁻¹.

Turning to AUAAAAGCGCCAGACCUACAGAAAUGUAGUUGACGAGGAGGAGGUUUAUCGAAUUUUAGGCGGAUGCCUCCAAA, the kcat in the series with glucosamine-6-phosphate [1] was determined as 0.000185 ± 2.6e-05 s⁻¹. Moreover, the KM with glucosamine-6-phosphate [2] is 2130 ± 720 µM. The “self-cleavage kobs at 640 uM GlcN6P” value in the series with glucosamine-6-phosphate [5] came out at 5.17e-05 ± 1.2e-05 s⁻¹. Also, in the series with glucosamine-6-phosphate [3], the “self-cleavage kobs at 2500 uM GlcN6P” value worked out at 8.54e-05 ± 1.6e-05 s⁻¹. Also, the “self-cleavage kobs at 10000 uM GlcN6P” value with glucosamine-6-phosphate [4] worked out at 0.00016 ± 2.1e-05 s⁻¹.

Turning to AUAAAAGCGCCAGAACUACAGAAAUGUAGUUGACUAGGAGGAGGUUUAUCGAUUUUUCGGCGGAUGCCUCCAAA, the kcat with glucosamine-6-phosphate [1] is under 1e-05 s⁻¹. The “self-cleavage kobs at 640 uM GlcN6P” value with glucosamine-6-phosphate [5] was under 1e-05 s⁻¹.

Take AUAAAAGCGCCAGAACUACAGAAAUGUAGUUGACGAGGAGGAGGUUUAUCGAAUAUUCGGCGGAUGCCUCCAAA: the kcat with glucosamine-6-phosphate [1] came to 0.0533 ± 0.012 s⁻¹. The Michaelis constant (KM) with glucosamine-6-phosphate [2] stood at 1770 ± 530 µM. Further, the “self-cleavage kobs at 40 uM GlcN6P” value with glucosamine-6-phosphate [6] is 0.00134 ± 4.9e-05 s⁻¹. The “self-cleavage kobs at 160 uM GlcN6P” value in the series with glucosamine-6-phosphate [7] came to 0.0039 ± 0.00028 s⁻¹. In addition, the “self-cleavage kobs at 640 uM GlcN6P” value with glucosamine-6-phosphate [5] is 0.0133 ± 0.00067 s⁻¹. Moreover, the “self-cleavage kobs at 2500 uM GlcN6P” value with glucosamine-6-phosphate [3] was determined as 0.025 ± 0.0015 s⁻¹. The “self-cleavage kobs at 10000 uM GlcN6P” value with glucosamine-6-phosphate [4] is 0.0555 ± 0.0025 s⁻¹.

Take AUAAAAGCGCCAGAACUACAGAAAUGUAGUUGACGAGGCUGAGGUUUAUCGAAUUUUCGGCGGAUGCCUCCAAA: the turnover number (kcat) with glucosamine-6-phosphate [1] amounted to 0.000135 ± 1.1e-05 s⁻¹. In addition, in the series with glucosamine-6-phosphate [2], the Michaelis-Menten constant (KM) stood at 1690 ± 480 µM. The “self-cleavage kobs at 640 uM GlcN6P” value with glucosamine-6-phosphate [5] came out at 5.01e-05 ± 1.7e-05 s⁻¹. Further, the “self-cleavage kobs at 2500 uM GlcN6P” value in the series with glucosamine-6-phosphate [3] was 7.56e-05 ± 9.8e-06 s⁻¹. For the same variant, in the series with glucosamine-6-phosphate [4], the “self-cleavage kobs at 10000 uM GlcN6P” value came out at 0.000118 ± 1e-05 s⁻¹.

As to AUAAAAGCGCCAGAACUACAGAAAUGUAGUUGACGAGGAGGAGGUUUAUCGACUUUUCGGCGGAUACCUCCAAA, the catalytic constant (kcat) with glucosamine-6-phosphate [1] worked out at 0.00434 ± 0.0011 s⁻¹. For the same variant, the Michaelis-Menten constant (KM) with glucosamine-6-phosphate [2] is 1670 ± 640 µM. Further, the “self-cleavage kobs at 40 uM GlcN6P” value with glucosamine-6-phosphate [6] was 0.000154 ± 2.2e-05 s⁻¹. Further, the “self-cleavage kobs at 160 uM GlcN6P” value with glucosamine-6-phosphate [7] was found to be 0.000292 ± 6.4e-05 s⁻¹. In the series with glucosamine-6-phosphate [5], the “self-cleavage kobs at 640 uM GlcN6P” value came out at 0.00107 ± 0.00017 s⁻¹. The “self-cleavage kobs at 2500 uM GlcN6P” value with glucosamine-6-phosphate [3] came to 0.00288 ± 0.00047 s⁻¹. For the same variant, the “self-cleavage kobs at 10000 uM GlcN6P” value in the series with glucosamine-6-phosphate [4] was found to be 0.00374 ± 0.00053 s⁻¹.

Regarding AUAAAAGCGCCAGAACUACAGAAAUGUAGUUGACGAGGCGGCGGUUUAUCGAAUUUUCGGCGGAUGCCUCCAAA, the kcat with glucosamine-6-phosphate [1] was found to be 6.31e-05 ± 3.9e-06 s⁻¹. Also, the KM in the series with glucosamine-6-phosphate [2] was found to be 890 ± 270 µM. Besides, the “self-cleavage kobs at 640 uM GlcN6P” value with glucosamine-6-phosphate [5] was 3.24e-05 ± 1.5e-05 s⁻¹. The “self-cleavage kobs at 2500 uM GlcN6P” value with glucosamine-6-phosphate [3] was 4.41e-05 ± 9.6e-06 s⁻¹. The “self-cleavage kobs at 10000 uM GlcN6P” value with glucosamine-6-phosphate [4] was found to be 5.88e-05 ± 8.3e-06 s⁻¹.

Consider AUAAAAGCGCCAGAACUACAGAAAUGUAGUUGACGAGGUGGAGGUUUAUCGAAUUUUUGGCGGAUGCCUCCAAA, for which the turnover number (kcat) with glucosamine-6-phosphate [1] stood at 1.89e-05 ± 1e-06 s⁻¹.

In the case of AUAAAUGCGCCAGAACUACAGAAAUGUAGUUGACGAGGAGGAGGUUUAUCGAAUUUUCGACGGAUGCCUCCAAA, in the series with glucosamine-6-phosphate [1], the catalytic constant (kcat) was under 1e-05 s⁻¹. For the same variant, the “self-cleavage kobs at 640 uM GlcN6P” value with glucosamine-6-phosphate [5] is under 1e-05 s⁻¹.

For the variant AUAAAAGCGCCAGAACUACAGAAAUGUAGUUAACGAGGAGGAGGUUUAUCGAAUUUUCGGCGGAGGCCUCCAAA, the catalytic constant (kcat) in the series with glucosamine-6-phosphate [1] was 0.000643 ± 0.00019 s⁻¹. In the series with glucosamine-6-phosphate [2], the Michaelis constant (KM) worked out at 7620 ± 3800 µM. Also, in the series with glucosamine-6-phosphate [5], the “self-cleavage kobs at 640 uM GlcN6P” value amounted to 7.49e-05 ± 2.1e-05 s⁻¹. The “self-cleavage kobs at 2500 uM GlcN6P” value with glucosamine-6-phosphate [3] stood at 0.000139 ± 2.7e-05 s⁻¹. For the same variant, the “self-cleavage kobs at 10000 uM GlcN6P” value with glucosamine-6-phosphate [4] amounted to 0.000374 ± 5e-05 s⁻¹.

With AUAAAAGCGCCAGAACUACAGAAAUGUAUUUGACGAGGAGGAGGUUUAUAGAAUUUUCGGCGGAUUCCUCCAAA, the kcat in the series with glucosamine-6-phosphate [1] amounted to 1.4e-05 ± 4.4e-06 s⁻¹.

Take AUAAAAGCGCCAGAACUACAGAAAUGUAGUUGACGACGAGGAGGUUGAUCGAAUUUUCGGCGGAUGCCUCCAAA: the turnover number (kcat) with glucosamine-6-phosphate [1] was found to be 1.63e-05 ± 2.9e-06 s⁻¹.

On to AUAAAAGCGCCAGAAUUACAGAAAUGUAGUUGACGAGGAGGAGGUUUAUCGAAUUUUCGGCGGAUGCCUCCAAA, for which the turnover number (kcat) with glucosamine-6-phosphate [1] was found to be 0.0542 ± 0.005 s⁻¹. Besides, in the series with glucosamine-6-phosphate [2], the KM was found to be 2230 ± 230 µM. The “self-cleavage kobs at 40 uM GlcN6P” value in the series with glucosamine-6-phosphate [6] is 0.000969 ± 1.7e-05 s⁻¹. Also, in the series with glucosamine-6-phosphate [7], the “self-cleavage kobs at 160 uM GlcN6P” value was 0.00308 ± 0.0002 s⁻¹. The “self-cleavage kobs at 640 uM GlcN6P” value in the series with glucosamine-6-phosphate [5] turned out to be 0.0121 ± 0.00055 s⁻¹. Further, the “self-cleavage kobs at 2500 uM GlcN6P” value with glucosamine-6-phosphate [3] stood at 0.0272 ± 0.0015 s⁻¹. Moreover, the “self-cleavage kobs at 10000 uM GlcN6P” value in the series with glucosamine-6-phosphate [4] is 0.0458 ± 0.0022 s⁻¹.

Take AUAAAUGCGCCAGAACUACAGAAAUGUAGUUGACGAGGAGGAGGUUUAUCGAAUUUUCAGCGGAUGCCUCCAAA: the turnover number (kcat) in the series with glucosamine-6-phosphate [1] is under 1e-05 s⁻¹. Also, in the series with glucosamine-6-phosphate [6], the “self-cleavage kobs at 40 uM GlcN6P” value is under 1e-05 s⁻¹. The “self-cleavage kobs at 640 uM GlcN6P” value with glucosamine-6-phosphate [5] is under 1e-05 s⁻¹.

As for AUAAAAGCGCCAGAACUACAGAAAUGUAGUUGACGAGGAGGAGGUUUAUCGAAGUUUCGGCGGAUGCCGCCAAA, in the series with glucosamine-6-phosphate [1], the turnover number (kcat) came out at 7.3e-05 ± 1.5e-05 s⁻¹. Moreover, in the series with glucosamine-6-phosphate [6], the “self-cleavage kobs at 40 uM GlcN6P” value worked out at 3.86e-05 ± 1.3e-05 s⁻¹. In the series with glucosamine-6-phosphate [7], the “self-cleavage kobs at 160 uM GlcN6P” value stood at 8.46e-05 ± 2.2e-05 s⁻¹. Further, the “self-cleavage kobs at 640 uM GlcN6P” value with glucosamine-6-phosphate [5] was 9.61e-05 ± 1.4e-05 s⁻¹. Besides, in the series with glucosamine-6-phosphate [3], the “self-cleavage kobs at 2500 uM GlcN6P” value is 8.77e-05 ± 1.5e-05 s⁻¹. Besides, the “self-cleavage kobs at 10000 uM GlcN6P” value with glucosamine-6-phosphate [4] was 4.86e-05 ± 1.1e-05 s⁻¹.

As for AUAAAAGCGCCAGAACUACAGAAAUGUAGUUGACGAGGCGGAGGUUUAUCGAAUUUUCGGCGGGUGCCUCCAAA, the kcat with glucosamine-6-phosphate [1] came to 0.00631 ± 0.0019 s⁻¹. Moreover, the Michaelis constant (KM) in the series with glucosamine-6-phosphate [2] was 1870 ± 760 µM. The “self-cleavage kobs at 40 uM GlcN6P” value with glucosamine-6-phosphate [6] worked out at 0.000169 ± 1.3e-05 s⁻¹. Also, in the series with glucosamine-6-phosphate [7], the “self-cleavage kobs at 160 uM GlcN6P” value was determined as 0.000342 ± 6.2e-05 s⁻¹. For the same variant, in the series with glucosamine-6-phosphate [5], the “self-cleavage kobs at 640 uM GlcN6P” value came to 0.0014 ± 0.00018 s⁻¹. For the same variant, the “self-cleavage kobs at 2500 uM GlcN6P” value in the series with glucosamine-6-phosphate [3] turned out to be 0.00323 ± 0.00045 s⁻¹. Also, in the series with glucosamine-6-phosphate [4], the “self-cleavage kobs at 10000 uM GlcN6P” value came to 0.00604 ± 0.00065 s⁻¹.

As for AUAAAAGCACCAGAACUACAGAAAUGUAGUUGACGAGGAGGAGGAUUAUCGAAUUUUCGGCGGAUGCCUCCAAA, in the series with glucosamine-6-phosphate [1], the kcat is 1.6e-05 ± 1.8e-06 s⁻¹. The “self-cleavage kobs at 160 uM GlcN6P” value with glucosamine-6-phosphate [7] is under 1e-05 s⁻¹.
